B1: Speckle-type POZ protein (Homo sapiens), O43791 (parent)
chain: MSRVPSPPPPAEMSSGPVAESWCYTQIKVVKFSYMWTINNFSFCREEMGEVIKSSTFSSGANDKLKWCLRVNPKGLDEESKDYLSLYLLLVSCPKSEVRAKFKFSILNAKGEETKAMESQRAYRFVQGKDWGFKKFIRRDFLLDEANGLLPDDKLTLFCEVSVVQDSVNISGQNTMNMVKVPECRLADELGGLWENSRFTDCCLCVAGQEFQAHKAILAARSPVFSAMFEHEMEESKKNRVEINDVEPEVFKEMMCFIYTGKAPNLDKMADDLLAAADKYALERLKVMCEDALCSNLSVENAAEILILADLHSADQLKTQAVDFINYHASDVLETSGWKSMVVSHPHLVAEAYRSLASAQCPFLGPPRKRLKQS
partner: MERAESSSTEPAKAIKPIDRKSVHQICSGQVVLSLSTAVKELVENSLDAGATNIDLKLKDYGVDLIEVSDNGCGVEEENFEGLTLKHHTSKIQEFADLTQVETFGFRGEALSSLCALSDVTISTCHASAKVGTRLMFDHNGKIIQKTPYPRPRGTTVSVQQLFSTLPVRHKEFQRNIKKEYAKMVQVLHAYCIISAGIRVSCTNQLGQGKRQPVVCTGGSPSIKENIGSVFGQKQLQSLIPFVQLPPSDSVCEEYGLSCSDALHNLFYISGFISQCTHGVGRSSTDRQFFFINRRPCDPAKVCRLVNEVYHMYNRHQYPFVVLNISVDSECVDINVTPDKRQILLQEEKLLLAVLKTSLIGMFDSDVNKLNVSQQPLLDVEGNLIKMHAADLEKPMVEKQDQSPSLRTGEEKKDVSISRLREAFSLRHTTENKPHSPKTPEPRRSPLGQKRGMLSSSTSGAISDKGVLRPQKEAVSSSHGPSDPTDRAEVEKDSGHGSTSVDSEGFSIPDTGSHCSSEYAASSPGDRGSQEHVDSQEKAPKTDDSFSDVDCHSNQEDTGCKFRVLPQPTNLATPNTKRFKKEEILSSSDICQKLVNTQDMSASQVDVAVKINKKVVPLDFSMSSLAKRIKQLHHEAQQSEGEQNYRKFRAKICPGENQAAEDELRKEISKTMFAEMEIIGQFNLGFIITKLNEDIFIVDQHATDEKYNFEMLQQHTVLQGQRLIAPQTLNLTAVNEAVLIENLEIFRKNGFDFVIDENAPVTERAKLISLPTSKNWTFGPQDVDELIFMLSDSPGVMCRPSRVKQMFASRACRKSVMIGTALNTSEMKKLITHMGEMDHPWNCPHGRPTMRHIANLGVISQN
B2: Speckle-type POZ protein (Homo sapiens), O43791 (parent)
chain: B1 chain
partner: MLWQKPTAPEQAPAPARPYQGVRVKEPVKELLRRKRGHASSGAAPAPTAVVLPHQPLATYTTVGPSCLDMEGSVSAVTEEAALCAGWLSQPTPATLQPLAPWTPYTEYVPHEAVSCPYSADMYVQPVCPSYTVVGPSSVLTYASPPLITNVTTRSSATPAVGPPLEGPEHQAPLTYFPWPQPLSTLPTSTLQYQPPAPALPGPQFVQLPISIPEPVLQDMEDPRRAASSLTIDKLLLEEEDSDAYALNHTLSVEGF
B3: Speckle-type POZ protein (Homo sapiens), O43791 (parent)
chain: B1 chain
partner: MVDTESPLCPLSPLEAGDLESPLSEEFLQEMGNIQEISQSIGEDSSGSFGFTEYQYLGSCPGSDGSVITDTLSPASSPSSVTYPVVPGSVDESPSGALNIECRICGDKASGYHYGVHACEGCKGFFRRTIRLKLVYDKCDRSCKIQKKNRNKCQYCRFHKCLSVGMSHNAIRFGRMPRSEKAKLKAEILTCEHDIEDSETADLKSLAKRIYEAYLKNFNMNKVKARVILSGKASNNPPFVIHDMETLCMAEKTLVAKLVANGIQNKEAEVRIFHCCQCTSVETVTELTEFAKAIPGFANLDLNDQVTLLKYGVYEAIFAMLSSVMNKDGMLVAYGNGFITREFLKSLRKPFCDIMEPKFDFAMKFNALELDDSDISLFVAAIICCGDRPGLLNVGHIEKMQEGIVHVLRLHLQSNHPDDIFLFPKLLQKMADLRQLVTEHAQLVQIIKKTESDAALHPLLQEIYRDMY
B4: Speckle-type POZ protein (Homo sapiens), O43791 (parent)
chain: B1 chain
partner: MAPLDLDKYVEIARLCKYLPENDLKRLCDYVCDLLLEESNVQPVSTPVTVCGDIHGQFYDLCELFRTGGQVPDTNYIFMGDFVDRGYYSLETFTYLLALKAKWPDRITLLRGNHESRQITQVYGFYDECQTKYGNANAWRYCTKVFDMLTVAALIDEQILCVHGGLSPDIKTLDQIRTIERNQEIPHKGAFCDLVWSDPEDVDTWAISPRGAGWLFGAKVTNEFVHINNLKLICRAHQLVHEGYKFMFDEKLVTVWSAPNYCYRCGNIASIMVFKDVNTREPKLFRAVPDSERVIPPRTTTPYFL
B5: Speckle-type POZ protein (Homo sapiens), O43791 (parent)
chain: B1 chain
partner: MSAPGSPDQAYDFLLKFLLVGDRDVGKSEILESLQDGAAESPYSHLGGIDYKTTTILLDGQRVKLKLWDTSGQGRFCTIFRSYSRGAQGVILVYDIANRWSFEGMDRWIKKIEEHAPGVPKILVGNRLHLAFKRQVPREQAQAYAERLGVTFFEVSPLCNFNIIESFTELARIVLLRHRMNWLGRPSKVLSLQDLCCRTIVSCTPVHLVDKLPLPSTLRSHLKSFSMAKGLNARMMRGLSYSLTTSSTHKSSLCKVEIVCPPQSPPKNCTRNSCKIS
B6: Speckle-type POZ protein (Homo sapiens), O43791 (parent)
chain: B1 chain
partner: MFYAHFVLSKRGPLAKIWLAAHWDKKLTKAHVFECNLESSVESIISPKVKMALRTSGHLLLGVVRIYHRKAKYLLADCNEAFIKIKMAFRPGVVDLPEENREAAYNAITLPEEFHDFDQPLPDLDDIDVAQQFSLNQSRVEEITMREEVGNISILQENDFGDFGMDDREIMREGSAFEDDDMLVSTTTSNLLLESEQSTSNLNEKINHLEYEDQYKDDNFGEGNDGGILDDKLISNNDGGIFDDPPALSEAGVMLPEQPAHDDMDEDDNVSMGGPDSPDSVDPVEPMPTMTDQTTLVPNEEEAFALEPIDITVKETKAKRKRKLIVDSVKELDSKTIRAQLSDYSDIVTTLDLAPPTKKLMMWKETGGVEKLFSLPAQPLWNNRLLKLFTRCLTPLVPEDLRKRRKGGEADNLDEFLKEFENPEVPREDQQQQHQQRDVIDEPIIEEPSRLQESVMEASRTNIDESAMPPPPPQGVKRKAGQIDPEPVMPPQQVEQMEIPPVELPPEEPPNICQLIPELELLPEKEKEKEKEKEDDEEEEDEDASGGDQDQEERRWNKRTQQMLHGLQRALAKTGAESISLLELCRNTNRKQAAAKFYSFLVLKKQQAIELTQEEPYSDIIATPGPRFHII

Variants of: B1
Conditions: with pms2_human PMS2, P54278

Row | Variant | effect of a mutation on the interaction
1 | F133L | with no effect

Variants of: B1
Conditions: with pms2_human PMS2, P54278
Remark: another data set of the same source

Row | Variant | effect of a mutation on the interaction
2 | Y87C | with no effect

Variants of: B1
Conditions: with pms2_human PMS2, P54278
Remark: another data set of the same source

Row | Variant | effect of a mutation on the interaction
3 | F133V | with no effect

Variants of: B2
Conditions: with obf1_human POU2AF1, Q16633

Row | Variant | effect of a mutation on the interaction
4 | F102C | with no effect

Variants of: B2
Conditions: with obf1_human POU2AF1, Q16633
Remark: another data set of the same source

Row | Variant | effect of a mutation on the interaction
5 | F133L | with no effect

Variants of: B2
Conditions: with obf1_human POU2AF1, Q16633
Remark: another data set of the same source

Row | Variant | effect of a mutation on the interaction
6 | Y87C | with no effect

Variants of: B2
Conditions: with obf1_human POU2AF1, Q16633
Remark: another data set of the same source

Row | Variant | effect of a mutation on the interaction
7 | F133V | with no effect

Variants of: B3
Conditions: with ppara_human PPARA

Row | Variant | effect of a mutation on the interaction
8 | F102C | with no effect

Variants of: B3
Conditions: with ppara_human PPARA
Remark: another data set of the same source

Row | Variant | effect of a mutation on the interaction
9 | F133L | with no effect

Variants of: B3
Conditions: with ppara_human PPARA
Remark: another data set of the same source

Row | Variant | effect of a mutation on the interaction
10 | Y87C | with no effect

Variants of: B3
Conditions: with ppara_human PPARA
Remark: another data set of the same source

Row | Variant | effect of a mutation on the interaction
11 | F133V | with no effect

Variants of: B4
Conditions: with ppp6_human PPP6C

Row | Variant | effect of a mutation on the interaction
12 | F102C | with no effect

Variants of: B4
Conditions: with ppp6_human PPP6C
Remark: another data set of the same source

Row | Variant | effect of a mutation on the interaction
13 | F133L | with no effect

Variants of: B4
Conditions: with ppp6_human PPP6C
Remark: another data set of the same source

Row | Variant | effect of a mutation on the interaction
14 | Y87C | with no effect

Variants of: B4
Conditions: with ppp6_human PPP6C
Remark: another data set of the same source

Row | Variant | effect of a mutation on the interaction
15 | F133V | with no effect

Variants of: B5
Conditions: with rb40a_human RAB40A

Row | Variant | effect of a mutation on the interaction
16 | F102C | with no effect

Variants of: B5
Conditions: with rb40a_human RAB40A
Remark: another data set of the same source

Row | Variant | effect of a mutation on the interaction
17 | F133L | with no effect

Variants of: B5
Conditions: with rb40a_human RAB40A
Remark: another data set of the same source

Row | Variant | effect of a mutation on the interaction
18 | Y87C | with no effect

Variants of: B5
Conditions: with rb40a_human RAB40A
Remark: another data set of the same source

Row | Variant | effect of a mutation on the interaction
19 | F133V | with no effect

Variants of: B6
Conditions: with rad21_human RAD21, O60216

Row | Variant | effect of a mutation on the interaction
20 | F102C | with no effect

Variants of: B6
Conditions: with rad21_human RAD21, O60216
Remark: another data set of the same source

Row | Variant | effect of a mutation on the interaction
21 | F133L | with no effect

Variants of: B6
Conditions: with rad21_human RAD21, O60216
Remark: another data set of the same source

Row | Variant | effect of a mutation on the interaction
22 | Y87C | with no effect

Variants of: B6
Conditions: with rad21_human RAD21, O60216
Remark: another data set of the same source

Row | Variant | effect of a mutation on the interaction
23 | F133V | with no effect

Source: IntAct's records for PubMed 35512704
